In the test the target is human TRPM8 fused C-terminally to TEV-GFP-His8-tag (human), Q7Z2W7. Description: SDS-PAGE with in-gel GFP fluorescence; crude S. cerevisiae membranes separated by SDS-PAGE, GFP fluorescence of the fusion read in the gel. The note with it: remark: other sources report otherwise.

Data on one molecule can be found in publication PMC6406451.

Broadly, the stoichiometry N is the number of molecules, sites or subunits per partner or assembly.

B1: human TRPM8 fused C-terminally to TEV-GFP-His8-tag, Q7Z2W7 1-1104 (natural protein)
chain: MSFRAARLSMRNRRNDTLDSTRTLYSSASRSTDLSYSESDLVNFIQANFKKRECVFFTKDSKATENVCKCGYAQSQHMEGTQINQSEKWNYKKHTKEFPTDAFGDIQFETLGKKGKYIRLSCDTDAEILYELLTQHWHLKTPNLVISVTGGAKNFALKPRMRKIFSRLIYIAQSKGAWILTGGTHYGLMKYIGEVVRDNTISRSSEENIVAIGIAAWGMVSNRDTLIRNCDAEGYFLAQYLMDDFTRDPLYILDNNHTHLLLVDNGCHGHPTVEAKLRNQLEKYISERTIQDSNYGGKIPIVCFAQGGGKETLKAINTSIKNKIPCVVVEGSGQIADVIASLVEVEDALTSSAVKEKLVRFLPRTVSRLPEEETESWIKWLKEILECSHLLTVIKMEEAGDEIVSNAISYALYKAFSTSEQDKDNWNGQLKLLLEWNQLDLANDEIFTNDRRWESADLQEVMFTALIKDRPKFVRLFLENGLNLRKFLTHDVLTELFSNHFSTLVYRNLQIAKNSYNDALLTFVWKLVANFRRGFRKEDRNGRDEMDIELHDVSPITRHPLQALFIWAILQNKKELSKVIWEQTRGCTLAALGASKLLKTLAKVKNDINAAGESEELANEYETRAVELFTECYSSDEDLAEQLLVYSCEAWGGSNCLELAVEATDQHFIAQPGVQNFLSKQWYGEISRDTKNWKIILCLFIIPLVGCGFVSFRKKPVDKHKKLLWYYVAFFTSPFVVFSWNVVFYIAFLLLFAYVLLMDFHSVPHPPELVLYSLVFVLFCDEVRQWYVNGVNYFTDLWNVMDTLGLFYFIAGIVFRLHSSNKSSLYSGRVIFCLDYIIFTLRLIHIFTVSRNLGPKIIMLQRMLIDVFFFLFLFAVWMVAFGVARQGILRQNEQRWRWIFRSVIYEPYLAMFGQVPSDVDGTTYDFAHCTFTGNESKPLCVELDEHNLPRFPEWITIPLVCIYMLSTNILLVNLLVAMFGYTVGTVQENNDQVWKFQRYFLVQEYCSRLNIPFPFIVFAYFYMVVKKCFKCCCKEKNMESSVCCFKNEDNETLAWEGVMKENYLVKINTKANDTSEEMRHRFRQLDTKLNDLKGLLKEIANKIK
Turning to B1, the stoichiometry N is 2.
